The text below walks through data of US20250250357A1 (NANJING ZAIMING PHARMACEUTICAL, published 2025).

As a reminder, the EC50 is the concentration giving half of the maximal effect.

Numbering of substitutions follows the chain as printed.

To fix the notation:
B1: S009-F7.44.20 (antibody, human IgG1, kappa, V domains shown)
VH: EVQLQQSGPELVKPGASVKIPCKASGYTFTDYNMDWVKQSHGKSLEWIGDINPSTGGTIYNQKFNGKATLTEDKSASTVYMEFRSLTSDDTAVYYCARRRIGTGYFDVWGTGTTVTVSS
VL: QIVLTQSPALMSASPGEKVTLTCSASSSVISSYLSWYQQKPGSSPKLLIYRTSNLASGVPARFSGSGSGTSYSLTISSMEAEDAASYFCHQWSSFPYTFGGGTKLEIKR
notes: human-murine chimeric antibody, human IgG1/kappa constant regions
B2: S009-F7.61.21 (antibody, human IgG1, kappa, V domains shown)
VH: DVQLQQSGPELVEPGASVRIPCKAAGHTFTDYNVDWVKQSHGQSLEWIGDVNPNTDGAIYNQKFEGKATLTVDTSSSTAYMELRSLTSEDTAVYFCARRRLGQGGFDSWGQGTTLTVSS
VL: B1 VL with I2V, L10I, S24G, V29L, S32K, S35Y, L48W, R51S, F95Y, L105V
notes: as for B1
B3: S009-F7.26.15 (antibody, human IgG1, kappa, V domains shown)
VH: DVQLQESGPGLVKPSQTVFLTCTVTGISITTGNYRWSWIRQFPGNKLEWIGYIYYTGFITYNPSLTSRTTITRDTPKNQFFLEMKSLTAEDTATYYCARDDYDYDVFAYWGQGTLVTVSA
VL: DIQMTQSPASLSASVGETVTITCRASGNIHNYLAWYHQKQGKSPQFLVYKAKTLADGVPSRFSGSGSGTQYSLKINRLQPEDFGSYYCQHFLSIPLTFGAGTKLELKR
notes: as for B1
B4: S009-F7.21.16 (antibody, human IgG1, kappa, V domains shown)
VH: QVQLQQPGTELVKPGASVKLSCKASGYTFTTFWMHWVKQRPGQGLEWIGGVNPTNGGTNYNEKFRTKATLTVDKSSTTADMQLSSLTSEDSAVYYCAPHYISSRPGFAYWGQGTLVTVSG
VL: DIVMTQSQKFMSTSGGDRVSVTCKASQNVGTNVAWYQQKPGQSPKALIYSASYRYSGVPDRFTGSGSGTDFILTISNVQSEDLAEYFCQQYNSYPLTFGGGTKLEIKR
notes: as for B1
B5: S009-F7.33.24 (antibody, human IgG1, kappa, V domains shown)
VH: B4 VH with T31S, F32Y, G50N, T54S, T58S, R65K, T66N, T77S, S84N, S102G
VL: B4 VL with G15V, V33I, I72T, S76T, L104V
notes: as for B1
B6: S009-F7.30.5 (antibody, human IgG1, kappa, V domains shown)
VH: QVQLQQPKTELVKPGASVKLSCKASGYIFTTYWMHWVKQRPGQGLEWIGNVNPSNGGTMYNEKFERRATLTVDKSSSTADMQLSSLTSEDSAVYYCVPHYIGSRPGFAYWGQGTLVTVSG
VL: B4 VL with G15V, Q38H, I48L, I72T, S76T
notes: as for B1
B7: S009-F7.25.19 (antibody, human IgG1, kappa, V domains shown)
VH: QVQLQQPGTELVKPGASVKLSCKASGYTFTSYWMHWVKQRPGQGLEWIGNIIPSNGGTKYNEKFKSKATLTVDKSSSTAYMQLSSLTSEDSAVYYCSPHYYGGSPGFAYWGQGTLITVSA
VL: B4 VL with G15V, T22I, I72T
notes: as for B1
B8: S009-F7.23.19 (antibody, human IgG1, kappa, V domains shown)
VH: EVKLVESGGGLVQPGGSLSLSCAASGFTFTDYYMSWVRQPPGKALEWLGFIRSKANAYTTEYSASVKGRFTISRDNSQSILYLQMNDLRAEDSATYYCARYYYYGSGYVWYFDVWGTGTTVTVSS
VL: B4 VL with G15V, N28S, S43F, I72T, S76I, G100A, I106L
notes: as for B1
B9: S009-F7.48.1 (antibody, human IgG1, kappa, V domains shown)
VH: QVQLQQPGTELVKPGASVKLSCKASGYTFTSYWMHWVKQRPGQGLEWIGNINPSNGGTNNNENFKSKATLTVDTSSSTAYMQLSSLTSEDSAVYYCVRNGYHGYWYFDVWGTGTTVTVSS
VL: B4 VL with G15V, K39Q, G66V, I72T
notes: as for B1
B10: S009-F7.12.13 (antibody, human IgG1, kappa, V domains shown)
VH: EVQLQQSGPELVKPGASVKIPCKASGYTFTDYNMDWVKQSHGKGLEWIGDINPNTDDTIYNQKFNGKATLTVDKSSSTAYMELRSLTSEDTAVYYCSRRLIGTGYFDVWGTGTTVTVSS
VL: QIVLTQSPAIMSASPGEKVTLTCSASSSVISTYLCWYRQKPGSSPELWIYSTSNLASGVPARFSGSGSGTSYSLTISSMEAEDAASYFCHQWSNYPYTFGGGTKLGMKR
notes: as for B1
B11: S009-F7.41.18 (antibody, human IgG1, kappa, V domains shown)
VH: QVQLQQPGTELVKPGASVKLSCKASDYTFTSYWMHWVKQRPGQGLEWIGSINPSNGDTYYNEKFKNKATLTVDKSSSTAYMQLSSLTSDDSAVYYCARGWYFDVWGTGTTVTVSS
VL: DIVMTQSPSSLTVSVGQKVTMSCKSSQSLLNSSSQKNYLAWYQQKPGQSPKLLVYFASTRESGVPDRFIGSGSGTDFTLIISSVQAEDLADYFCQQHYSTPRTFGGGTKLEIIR
notes: as for B1
B12: S009-F7.18.10 (antibody, human IgG1, kappa, V domains shown)
VH: QVQLQQSGAELVRPGTSVKVSCKASGYAFTNYLIEWVKQRPGQGLEWIGVINPGSGGTKYNEKFKGKATLTADKSSSTAYMQLSSLTSEDSAVYFCASDYDYDPFAYWGQGTLVTVSA
VL: DIVMTQSHKFMSTSVGDRVSITCKASQDVSTAVAWYQRKPGQSPKLLIYWASTRHTGVPDRFTGSGSGTDYTLTISYMQAEDLALYYCQQHYSTPYTFGGGTKLEIKR
notes: as for B1
B13: S009-F7.65.13 (antibody, human IgG1, kappa, V domains shown)
VH: EVQLQQSGPELVKPGTSVKILCKASGDTFTAYNMDWVKQRHGQSLEWIGDINPNTDSTIYNQKFEGKAILTVDKSSSTAYMELRSLTSEDTAVYYCARRKLGRGYFDYWGQGTTLTVSS
VL: QIVLTQSPAIMSASPGEKVTMTCSVNLSVRYIYWYQQKPGSSPRLLIHDTSNLASGVPVRFSGSGSGTSYSLTISRMEAEDAATYYCQQWSSFPYTFGGGTKLEIKR
notes: as for B1
B14: S009-F7.53.2 (antibody, human IgG1, kappa, V domains shown)
VH: EVQLQQSGPELVKPGASVKIPCKTSGYTFTDYNMDWVKQSHGKSLEWIGDINPNTDGAIYNQKFQNKATLTVDKSSSTAYMELRSLTSEDTAVYYCTRRKLGRKFFDYWGQGTTLTVSS
VL: QIVLTQSPAIMSASPGEQVTMTCSASSSVGYMNWYQQKPGSSPRLLIYDTSNLASGVPVHFSGSGSGTSYSLTISRMEAAFAATYYCQQWYVYPYTFGGGTKLEIKR
notes: as for B1

T1 sequence (Q13421 other isoform, or with tags, fused parts or gaps): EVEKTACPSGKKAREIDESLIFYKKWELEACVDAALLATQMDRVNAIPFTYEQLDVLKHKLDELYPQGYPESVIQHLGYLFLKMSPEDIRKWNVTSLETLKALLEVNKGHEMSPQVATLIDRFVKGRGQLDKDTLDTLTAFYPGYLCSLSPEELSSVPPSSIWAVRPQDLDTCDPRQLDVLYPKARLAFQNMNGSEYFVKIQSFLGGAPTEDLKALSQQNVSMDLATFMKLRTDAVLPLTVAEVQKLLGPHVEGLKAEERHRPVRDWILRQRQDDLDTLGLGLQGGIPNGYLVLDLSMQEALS

One assay addresses T1, human MSLN protein endogenously expressed on OVCAR3 tumor cells (human, UniProt Q13421 296-598).
T1 construct: whole, on cells; Endogenous target on OVCAR3 cells; kept apart from the recombinant full-length construct; also called mesothelin
As to the kind of experiment: FACS on OVCAR3 cells.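 Note: flow cytometry binding of test antibodies to cells, 2 h incubation on ice, readout as cell mean fluorescence intensity.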
As to B1, the EC50 was 0.05 nM and the “Maximum mean fluorescence intensity” value stood at 25700.
On the same counts, the results for B2 are 1.08 nM and 23700.
On the same counts, the results for B3 are 0.2 nM and 16200.
The matching figures for B4: 0.52 nM and 32600.
Take B5: it took 0.15 nM to reach a half-maximal effect (EC50) and the “Maximum mean fluorescence intensity” value stood at 31200.
On the same counts, the results for B6 are 0.66 nM and 31800.
The matching figures for B7: 0.18 nM and 24200.
On to B8, for which it took 0.15 nM to reach a half-maximal effect (EC50) and the “Maximum mean fluorescence intensity” value amounted to 29300.
On the same counts, the results for B9 are roughly 4 nM and 24000.
As for B10, the response was half-maximal at 0.32 nM (EC50) and the “Maximum mean fluorescence intensity” value came to 21400.
The matching figures for B11: 0.22 nM and 25900.
On the same counts, the results for B12 are 3.29 nM and 29900.
On the same counts, the results for B13 are 0.87 nM and 26500.
On to B14, for which the EC50 amounted to 1.09 nM and the “Maximum mean fluorescence intensity” value was 23600.

In another assay the target is T2, monkey MSLN full-length protein (NCBI: XP_028696439.1) expressed on HEK293T-monkey MSLN cells (monkey).
T2 construct: Whole encoded precursor
T2 chain: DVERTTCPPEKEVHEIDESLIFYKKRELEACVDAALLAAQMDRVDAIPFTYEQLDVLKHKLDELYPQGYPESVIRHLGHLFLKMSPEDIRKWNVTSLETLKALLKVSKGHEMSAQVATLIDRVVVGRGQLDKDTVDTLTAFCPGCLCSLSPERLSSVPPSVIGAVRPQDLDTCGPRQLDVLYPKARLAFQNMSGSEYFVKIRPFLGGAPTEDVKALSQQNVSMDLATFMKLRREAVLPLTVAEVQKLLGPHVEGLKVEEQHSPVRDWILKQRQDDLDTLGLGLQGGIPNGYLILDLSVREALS
As to the kind of experiment: FACS on HEK293T-monkey MSLN cells.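 Note: flow cytometry binding of chimeric antibodies to the cells, with a 2 h incubation on ice.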
With B1, the EC50 came to 0.04 nM and the “Maximum mean fluorescence intensity” value was 45600.
On the same counts, the results for B2 are 0.75 nM and 39800.
For B3, the “Maximum mean fluorescence intensity” value worked out at 108 and the binding result is on record as “no binding”.
For B4, the midpoint of the response, the EC50, lay at 0.3 nM and the “Maximum mean fluorescence intensity” value turned out to be 50900.
On the same counts, the results for B5 are 0.13 nM and 47300.
On the same counts, the results for B6 are 0.34 nM and 47400.
The matching figures for B7: roughly 0.16 nM and 43200.
For the molecule B8, the EC50 was found to be 0.13 nM and the “Maximum mean fluorescence intensity” value came to 54300.
The matching figures for B9: 2.88 nM and 43200.
Regarding B10, the EC50 was 6.34 nM and the “Maximum mean fluorescence intensity” value was 7630.
On the same counts, the results for B11 are 0.54 nM and 64200.
On the same counts, the results for B12 are 0.47 nM and 50600.
In the case of B13, the EC50 was determined as 0.87 nM and the “Maximum mean fluorescence intensity” value came to 50200.
The matching figures for B14: 1.13 nM and 47400.

In a further assay the target is T3, human MSLN-R3 protein (Met487-Ser606 of NCBI AAH09272.1) expressed on HEK293T-hMSLN-R3 cells (human, UniProt Q13421 487-606).
T3 construct: also called Region3
T3 sequence (Q13421 495-614): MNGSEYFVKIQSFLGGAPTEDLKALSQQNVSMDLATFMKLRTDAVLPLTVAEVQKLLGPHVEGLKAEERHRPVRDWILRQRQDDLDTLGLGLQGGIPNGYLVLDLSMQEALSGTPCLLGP
As to the kind of experiment: FACS on HEK293T-hMSLN-R3 cells.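 Note: flow cytometry binding of test chimeric antibodies to cells after 2 h incubation on ice, with values derived from the mean fluorescence intensity of the cells.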
With B1, the concentration giving a half-maximal response (EC50) worked out at 0.04 nM and the “Maximum mean fluorescence intensity” value came to 7470.
On to B2, for which the midpoint of the response, the EC50, lay at 0.48 nM and the “Maximum mean fluorescence intensity” value came to 6250.
The matching figures for B3: 0.09 nM and 6940.
As to B4, it took 0.16 nM to reach a half-maximal effect (EC50) and the “Maximum mean fluorescence intensity” value was determined as 6820.
B5: a half-maximal response (EC50) required 0.06 nM and the “Maximum mean fluorescence intensity” value came out at 6480.
The matching figures for B6: 0.24 nM and 6160.
On the same counts, the results for B7 are 0.06 nM and 5350.
The matching figures for B8: 0.05 nM and 6570.
For B9, a half-maximal effect (EC50) was put at 1.87 nM and the “Maximum mean fluorescence intensity” value stood at 5150.
The matching figures for B10: 0.12 nM and 6610.
The matching figures for B11: 0.35 nM and 7460.
Turning to B12, the “Maximum mean fluorescence intensity” value worked out at 39 and the binding result is on record as “no binding”.
B13: the EC50 was found to be 0.91 nM and the “Maximum mean fluorescence intensity” value stood at 6490.
The matching figures for B14: 1.3 nM and 6480.
